Reference: patent US20240158500A1 (UCL BUSINESS, published 2024)
Positions count from the first letter of the chain named.

Tests used:
[1] = molecular target: human CD160, GPI-anchored isoform, on engineered cells (SupT1, 293T) (human) (UniProt O95971); assay: flow cytometry, BY55-IgM-PE. The thick histogram (SupT1 CD160) peaks at about 10^4, the thin one (SupT1 negative) below 10^2 [Continued) B]
[2] = molecular target: human CD160, GPI-anchored isoform, on engineered cells (SupT1, 293T) (human) (UniProt O95971); assay: flow cytometry, 293T cells transiently transfected with pVAC2 human CD160; the same quadrant on non-transfected 293T cells prints 0.071
[3] = molecular target: human CD160, GPI-anchored isoform, on engineered cells (SupT1, 293T) (human) (UniProt O95971); assay: flow cytometry, 293T cells transiently transfected with pVAC2 human CD160; the same quadrant on non-transfected 293T cells prints 1.53
[4] = molecular target: CD160 fused with Twin streptag (panning reagent from transfected 293T supernatant, unpurified or purified via its Fc region) (human) (UniProt O95971); assay: ELISA, coating antigen HEK supernatant (unpurified CD160 mIgG2a Fc), BY55-huIgG1 titrated, OD 450nm. The table under panel C repeats the value. The curve has no upper plateau in the range shown
[5] = molecular target: CD160 fused with Twin streptag (panning reagent from transfected 293T supernatant, unpurified or purified via its Fc region) (human) (UniProt O95971); assay: ELISA, coating antigen CD160-Fc purified (Purified CD160 mIgG2a Fc), BY55-huIgG1 titrated, OD 450nm. The table under panel C repeats the value. The curve has no upper plateau in the range shown
[6] = molecular target: commercially sourced CD160 protein (UniProt O95971); assay: ELISA, coating antigen CD160-His (Commercial CD160), BY55-huIgG1 titrated, OD 450nm. The table under panel C repeats the value
[7] = molecular target: T1, purified CD160 (SPR analyte) (UniProt O95971 25-159, limits assumed); assay: SPR, Biacore T200, scFv captured on CM5 chip, CD160 as analyte, single-cycle kinetics, 1:1 Langmuir fit
T1 sequence (looked up): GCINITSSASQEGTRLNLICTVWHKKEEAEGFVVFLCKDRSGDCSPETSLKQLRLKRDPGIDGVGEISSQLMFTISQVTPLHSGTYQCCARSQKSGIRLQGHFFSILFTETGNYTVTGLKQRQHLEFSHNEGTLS
Method: FIG. 8—Characterization of the monoclonal scFv identified in the biopanning. [A] […] We identified five different CDR3H in which three were represented in multiple clones and […]. [B] Flow cytometry analysis of the five selected CDR3 expressed secreted as chimeric scFv fused with mIgG2aFc. […] [C] The affinity of these five scFv was determined using Biacore T200 technology. Individual scFvs were captured on a CM5 chip and CD160 was injected as analyte at 5 different concentration (3.70 nM, 11.11 nM, 33.33, nM, 100 nM and 300 nM) in a single-cycle kinetic study. The double-reference subtracted sensorgrams fitted with the 1:1 Langmuir binding model; kinetic and model fitting data are reported in the table.
The kinetic profile of the scFvs was studied by SPR using purified CD160 as the analyte and a range of high affinity scFvs were found (FIG. 8).

With commercial anti-CD160 antibody BY55 the CD160+ (gate, share of cells) [1] was 92.9, the Q2 (anti-CD160-PE positive, blank channel positive), share of cells [2] was 14% and the Q1 (anti-CD160-PE positive, blank channel negative), share of cells [3] was 66%.

For BY55-huIgG1 (antibody), the EC50 [4] was 0.06 µg/mL, the EC50 [5] was 0.21 µg/mL and the EC50 [6] was 0.14 µg/mL.

B1: anti-CD160 scFv clone 11 (PB10) (scFv)
scFv: EVQLVESGGGLVQPGRSLKLSCAASGFTFSNYGMAWVRQAPTKGLEWVASINTSGGSTYYRDSVKGRFTISRDNAKSTLYLQMDSLRSEDTATYYCATIYYHDGSYYYAGWFAYWGQGTLVTVSSGGGGSGGGGSGGGGSDIVLTQSPALAVSPGERVSISCRASESVSTLMHWYQQKLGQQPKLLIYGASNLESGVPARFSGSGSGTDFTLNIDPVEADDIATYFCQQSWNGPWTFGGGTKLELKR
notes: Rat scFv, VH-linker-VL
B1 was tested, and the Kd [7] was 9.15 nM, the koff [7] was 0.00125 s⁻¹ and the kon [7] was 137000 M⁻¹ s⁻¹.

B2: anti-CD160 scFv clone 6 (SC14) (scFv)
scFv: EVQLVESGGGFVQPGRSLKLSCAASGFTFSNYAMAWVRQAPTKGLEWVASINSGGGDSYYRDSVKGRFTISRDNAKNTQYLQMDSLRSEDTATYYCATHNYGSTIFDYWGQGAMVTVSSGGGGSGGGGSGGGGSEIILTQSPTTMTASPGEKVTITCRASSSVSYMHWYQQKPGASPKPWIYETSKLASGVPDRFSGSGSGTSYSLTINNMEAEDAATYYCQQWNYPSMYTFGAGTKLELKR
notes: Rat scFv, VH-linker-VL
B2 gave a Kd [7] of 0.541 nM, a koff [7] of 0.000143 s⁻¹ and a kon [7] of 264000 M⁻¹ s⁻¹.

B3: anti-CD160 scFv clone 9 (PB6) (scFv)
scFv: EVQLVESGGGLVQPGRSLKLSCAASGFTFSNYAMAWVRQAPTKGLEWVASISSGGGDTYYRDSVKGRFTISRDNSKNTQYLQMDSLRSEDTATYYCATHNYESTVLITWGQGASVTVSSGGGGSGGGGSGGGGSEIVLTQSPTTTAASPGERVTITCRASSSVSYMHWYQQKPGASPKPWIYETSKLASGVPDRFSGSGSGTSYSLTINNMEAEDAATYYCQQWNYPSMYTFGAGTKLEIKR
notes: Rat scFv, VH-linker-VL
B3 showed a Kd [7] of 5.18 nM, a koff [7] of 0.00211 s⁻¹ and a kon [7] of 408000 M⁻¹ s⁻¹.

B4: anti-CD160 scFv clone 5 (C10) (scFv)
scFv: QVQLKESGPGLVQPSETLSLTCTVSGFSLTNYGINWFRQPPGKGLEWMGTIWNDGGTDYNSALKSRLTISRDTSKSQVFLKMNSLQTEDTAIYFCARGMEAWGQGASVTVSSGGGGSGGGGSGGGGSDIQLTQSPSLLSASVGDRVTLSCKGSQNINNYLAWYQQKLGEAPKLLIYNTNSLQTGIPSRFSGSGSGTDYTLTISSLQPEDFATYFCLQHNSGYTFGAGTKLEIKR
notes: Rat scFv, VH-linker-VL; also called 010
Molecule B4 has a Kd [7] of 18.4 nM, a koff [7] of 0.0305 s⁻¹ and a kon [7] of 1.65e+06 M⁻¹ s⁻¹.

B5: anti-CD160 scFv clone 8 (PB9) (scFv)
scFv: QVNLQESGPGLVQPSETLSLTCTVSGFSLTNYGINWFRQPPGKGLEWMGTIWNDGGTDYNSALKSRLSISRDTSKSQVFLKMNSLQTEDTAIYFCARGMDAWGQGASVTVSSGGGGSGGGGSGGGGSDIQMTQSPASLSASLGETVSIECLASEDIYNNLAWYQQKPGKSPQLLIYYANSLQDGVPSRFSGSGSGTQYSLKINSLQSEDVATYFCQQYNNYPFTFGSGTKLELKR
notes: Rat scFv, VH-linker-VL
B5 gave a Kd [7] of 4.92 nM, a koff [7] of 0.00804 s⁻¹ and a kon [7] of 1.63e+06 M⁻¹ s⁻¹.

B6: anti-CD160 scFv clone 3 (C83) (scFv)
scFv: QVNLQESGPGLVQPSETLSLTCTVSGFSLTSYGVYWVRQPPGKGLEWMGRIWNDGGTDYNPALKSRLSISRDTSKSQVFLKLNSLQTEDTAIYFCARGWTHWGQGTLVTVSSGGGGSGGGGSGGGGSDIQMTQSPASLSASLGETVSIECLASEDIYNNLAWYQQKPGKSPQLLIYYASSLQDGVPSRFSGSGSGTQYSLKINSLESEDVATYFCLQDSEYPPTFGGGTKLELKR
B6 was tested, and the Kd [7] was 1.5e-05 nM, the koff [7] was 1.69e-08 s⁻¹ and the kon [7] was 1.13e+06 M⁻¹ s⁻¹.

B7: anti-CD160 scFv clone 16 (scFv)
scFv: QVNLQESGPGLVRPSETLSLTCTVSGFSLISYGVNWFRQPPGKGLEWMGTIWNDGGTDYNSALKSRLSISRDTSKSQVFLKMNSLQTEDTAIYFCARGFEHWGQGVMVTVSSGGGGSGGGGSGGGGSDIQMTQSPASLSASLGETVSIECLTSEDISNDSAWYQQKSGKSPQLLIYAASRLQDGVPSRFSGSGSGTRYSLKISGMQPEDEADYFCQQSYKYPLTFGSGTKLEIKR
notes: Rat scFv, VH-linker-VL
B7 showed a Kd [7] of 8.72 nM, a koff [7] of 0.00243 s⁻¹ and a kon [7] of 279000 M⁻¹ s⁻¹.

B8: anti-CD160 scFv clone 1 (C123) (scFv)
scFv: EVKLVESGGGLVQPGRSLKLSCAASGFIFSNYAMAWVRQAPTKGLEWVASVNSGGANTYYRDSVKGRFTISRDNAKNTQYLHIDSLRSEDTATYYCATHNYESTVFDYWGQGAMVTVSSGGGGSGGGGSSGGGGSEIVLTQSPTTMTASPGEKVTITCRASSSVSYMHWYQQKPGASPKPWIYETSKLASGVPDRFSGSGSGTSYSLTINNMEAEDAATYYCQQWNYPSMYTFGAGTKLELKR
notes: Rat scFv, VH-linker-VL
B8 gave a Kd [7] of 0.00154 nM, a koff [7] of 2.76e-07 s⁻¹ and a kon [7] of 179000 M⁻¹ s⁻¹.

B9: anti-CD160 scFv clone 10 (scFv)
scFv: EVQLVESGPGLVQPSETLSLTCTVSGFSLTSYGVNWFRQPPGKGLEWMGTIWNDGGTDYNSALKSRLSISRDTSKSQVFLKMNSLQTEDTAIYFCARGFEYWGQGTLVTVSSGGGGSGGGGSGGGGSDIVMTQSPKSMSISVGDRVTMNCKASQNVGKNIAWYQQKPGQSPKLLIYYASNRYTGVPDRFTGSGSGTDFTLTITNMQTEDLAVYYCLQYNYNPWTFGGGTKLELKR
notes: Rat scFv, VH-linker-VL
B9 gave a Kd [7] of 8.91 nM, a koff [7] of 0.00245 s⁻¹ and a kon [7] of 275000 M⁻¹ s⁻¹.

B10: anti-CD160 scFv clone 4 (scFv)
scFv: EVKLVESGGGLVQPGRPLKLSCAASGFTFSNYGMAWVRQAPKKGLEWVATISTGDDNTYYRDSVKGRFTISRDNAKNTQYLQMDSLRSEDTATYYCATHNYESTIFDYWGQGVMVTVSSGGGGSGGGGSGGGGSDIAITQSPASMTASPGERVTITCRASSSVSYMHWYQQKPGASPKPWIYETSKLASGVPDRFSGSGSGTSYSLTINNMEAEDAATYYCQQWNYPSMYTFGAGTKLELKR
Work on B10 yielded a Kd [7] of 0.12 nM, a koff [7] of 3.9e-05 s⁻¹ and a kon [7] of 325000 M⁻¹ s⁻¹.

B11: anti-CD160 scFv clone 7 (scFv)
scFv: EVQLVESGPGLVQPSETLSLTCTVSGFSLTSHGVNWFRQPPGKGLEWMGTIWNDGGTDYNSALKSRLSIIRDTSKGQVFLKMNSLQTEDTAIYFCARGLAYWGQGTLVTVSSGGGGSGGGGSGGGGSDIQMTQSPASLSASLGETVNIECLASEDIYSDLAWYQQKPGKSPQLLIYNANSLQNGVPSRFSGSGSGTQYSLKINSLQSEDVATYFCQQYNNYPWTFGGGTKLEIKR
notes: Rat scFv, VH-linker-VL
For B11, the Kd [7] was 0.33 nM, the koff [7] was 0.00035 s⁻¹ and the kon [7] was 1.06e+06 M⁻¹ s⁻¹.

B12: anti-CD160 scFv clone 2 (C25) (scFv)
scFv: EVQLVESGGDLVQPGRSLKLSCAASGFTFSNYGMAWVRQAPTKGLEWVASVSNGGGNTYYRDSVKGRFTISRDNAKNTQYLQMDSLRSEDTATYYCVTHNYESTVFDYWGQGAMVTVSSGGGGSGGGGSGGGGSEIVLTQSPTTMTASPGEKVTITCRASSSVSYMHWYQQKPGASPKPWIYETSKLASGVPDRFSGSGSGTSYSLTINNMEAEDAATYYCQQWNYPSMYTFGPGTKLELKR
B12 gave a Kd [7] of 0.262 nM, a koff [7] of 6.51e-05 s⁻¹ and a kon [7] of 249000 M⁻¹ s⁻¹.

B13: anti-CD160 scFv clone 19 (scFv)
scFv: B12 scFv with Q3K, D10G, S50T, V51I, T98A, T144P, P234A
notes: Rat scFv, VH-linker-VL
With B13 the Kd [7] was 5.31 nM, the koff [7] was 0.000833 s⁻¹ and the kon [7] was 157000 M⁻¹ s⁻¹.

B14: anti-CD160 scFv clone 12 (scFv)
scFv: EVQLVESGGGFVQPGGSLKLSCAASGFTFSNYGMAWVRQAPKKGLEWVASISSGRGNTYYRDSVKGRFTISRDNAKNTQYLQMDSLRSEDTATYYCVTHNYESTIFDYWGQGVMVTVSSGGGGSGGGGSGGGGSEIVLTQSPTTMTASPGEKVTIICRASSSVSYMHWYQQKPGASPKPWIYETSKLASGVPDRFSGSGSGTSYSLTFNNMEAEDAATYYCQQWNYPSMYTFGAGTKLELKR
notes: Rat scFv, VH-linker-VL
B14 showed a Kd [7] of 0.000853 nM, a koff [7] of 1.75e-07 s⁻¹ and a kon [7] of 205000 M⁻¹ s⁻¹.
